Results published in publication PMC3322389 (Structure(London, England:1993), 2012).

Target: the molecule itself
Experiment: AUC

B1: Aureochrome1 LOV domain (AuLOV), residues 176-337 of V. frigida Aureochrome1 (domain or fragment, UniProt A8QW55 176-337, looked up)
chain: DSLIAQCSPEADTLLTDNPSKANRILEDPDYSLVKALQMAQQNFVITDASLPDNPIVYASRGFLTLTGYSLDQILGRNCRFLQGPETDPRAVDKIRNAITKGVDTSVCLLNYRQDGTTFWNLFFVAGLRDSKGNIVNYVGVQSKVSEDYAKLLVNEQNIEYK
- stoichiometry N: 2
